Experimental data published in patent US20240279281A1, “Peptide Inhibitors of Interleukin-23 Receptor” (Janssen Pharmaceutica NV, priority 2023, published 2024).
Starred links: 1 amine or outer side, 2 acyl side, 3 side chain; linkers in the order of their positions; H or OH if unused. Positions of bridges follow the written chain, without caps; N, C: chain ends. Non-standard residues stand in square brackets, D forms with d. 2Nal6(Ph4(NMorph)) = 2-amino-3-(6-(4-morpholinophenyl)naphthalen-2-yl)propanoic acid, O=C([C@H](Cc1ccc2cc(-c3ccc(N4CCOCC4)cc3)ccc2c1)N[*:1])[*:2]; TMAPF = 5-(4-(2-amino-2-carboxyethyl)phenoxy)-N,N,N-trimethylpentan-1-aminium, C[N+](C)(C)CCCCCOc1ccc(C[C@H](N[*:1])C(=O)[*:2])cc1; AEF(G) = 2-amino-3-(4-(2-guanidinoethoxy)phenyl)propanoic acid, N=C(N)NCCOc1ccc(C[C@H](N[*:1])C(=O)[*:2])cc1; 6Br2Nal = 2-amino-3-(6-bromonaphthalen-2-yl)propanoic acid, O=C([C@H](Cc1ccc2cc(Br)ccc2c1)N[*:1])[*:2]; 6F2Nal = 2-amino-3-(6-fluoronaphthalen-2-yl)propanoic acid, O=C([C@H](Cc1ccc2cc(F)ccc2c1)N[*:1])[*:2]; Trp(7-(3-AcNH-Ph)) = CC(=O)Nc1cccc(-c2cccc3c(C[C@H](N)C(=O)O)c[nH]c23)c1; 2Nal(6-OH) = N[C@@H](Cc1ccc2cc(O)ccc2c1)C(=O)O; Trp(7-Me) = Cc1cccc2c(C[C@H](N)C(=O)O)c[nH]c12; 3Pal(5-Me) = Cc1cncc(C[C@H](N)C(=O)O)c1; AEF = NCCOc1ccc(C[C@H](N)C(=O)O)cc1; 3Pal = N[C@@H](Cc1cccnc1)C(=O)O; NMecPEG3a = not defined here; Pen = CC(C)(S)[C@H](N)C(=O)O; Thp = NC1(C(=O)O)CCOCC1; Sar = CNCC(=O)O

B1: SEQ ID NO: 319 (peptide)
peptide: cPEG3aCO-[Pen]NT[Trp(7-Me)]K(NMecPEG3a)[Pen][AEF][2Nal(6-OH)][Thp]EN[3Pal][Sar]-NH2
modifications: disulfide 1-6 (inferred); not fully specified; printed as cPEG3aCO-Pen(3)-N-T-7MeW-K(NMecPEG3a)-Pen(3)-AEF-6OH2Nal-THP-E-N-3Pya-Sar-CONH2; reading uncertain
B2: SEQ ID NO: 349 (peptide)
peptide: Ac-X[Pen]NT[Trp(7-Me)]K(Ac)[Pen][AEF][2Nal(6-OH)][Thp]EN[3Pal][Sar]-NH2
modifications: disulfide 2-7 (inferred); not fully specified (residue 1); printed as MeCO-k(d)-Pen(3)-N-T-7MeW-K(Ac)-Pen(3)-AEF-6OH2Nal-THP-E-N-3Pya-Sar-CONH2

Biological target: T1, interleukin-23 receptor (IL-23R) (UniProt Q5VWK5 24-629, limits assumed)
T1 sequence (looked up): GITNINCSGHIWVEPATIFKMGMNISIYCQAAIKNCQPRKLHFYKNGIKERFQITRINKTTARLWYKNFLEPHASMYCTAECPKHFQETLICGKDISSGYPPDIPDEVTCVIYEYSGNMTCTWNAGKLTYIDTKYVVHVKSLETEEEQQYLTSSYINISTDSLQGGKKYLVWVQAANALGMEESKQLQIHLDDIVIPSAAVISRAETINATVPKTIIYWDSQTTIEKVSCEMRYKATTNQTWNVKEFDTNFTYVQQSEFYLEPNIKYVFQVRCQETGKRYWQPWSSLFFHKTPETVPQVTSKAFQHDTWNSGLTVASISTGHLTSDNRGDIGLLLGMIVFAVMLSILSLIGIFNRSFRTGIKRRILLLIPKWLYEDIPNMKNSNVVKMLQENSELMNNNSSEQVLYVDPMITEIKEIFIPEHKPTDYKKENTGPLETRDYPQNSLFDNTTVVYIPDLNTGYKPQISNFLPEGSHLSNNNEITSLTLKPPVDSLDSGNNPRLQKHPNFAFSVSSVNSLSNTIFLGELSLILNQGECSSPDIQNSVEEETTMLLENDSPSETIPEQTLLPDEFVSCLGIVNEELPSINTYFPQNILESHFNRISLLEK
Assay: cell-based or functional assay

Ac-[dR][Pen]NT[Trp(7-(3-AcNH-Ph))]K(Ac)[Pen][AEF(G)][2Nal(6-OH)][Thp]EN[3Pal(5-Me)][Sar]-NH2 (disulfide 2-7 (inferred)) [SEQ ID NO: 15] and Ac-[Pen]NT[Trp(7-Me)]K(Ac)[Pen][AEF][2Nal(6-OH)][Thp]EN[3Pal][Sar]-NH2 (disulfide 1-6 (inferred)) [SEQ ID NO: 428] cannot be ordered by “IL23R Reporter Assay IC50” value: < 0.01 µM for the first, < 0.01 µM for the second.

Going from Ac-[dR][Pen]NT[Trp(7-Me)]K(Ac)[Pen][AEF][2Nal6(Ph4(NMorph))][Thp]EN[Thp]-NH2 (disulfide 2-7 (inferred)) [SEQ ID NO: 432] to B1, the “IL23R Reporter Assay IC50” value falls from ≥ 0.1 µM to < 0.01 µM.

Ac-[dR][Pen]NT[Trp(7-(3-AcNH-Ph))]K(Ac)[Pen][AEF][2Nal(6-OH)][Thp]EN[3Pal][Sar]-NH2 (disulfide 2-7 (inferred)) [SEQ ID NO: 287] and Ac-[dR][Pen]NT[Trp(7-Me)]K(Ac)[Pen][AEF][6F2Nal][Thp]EN[3Pal][Sar]-NH2 (disulfide 2-7 (inferred)) [SEQ ID NO: 407] cannot be ordered by “IL23R Reporter Assay IC50” value: < 0.01 µM for the first, < 0.01 µM for the second.

Ac-[dR][Pen]NT[Trp(7-Me)]K(Ac)[Pen][AEF][2Nal(6-OH)][Thp]EN[3Pal][Sar]-NH2 (disulfide 2-7 (inferred)) [SEQ ID NO: 442] and B2 cannot be ordered by “IL23R Reporter Assay IC50” value: < 0.01 µM for the first, < 0.01 µM for the second.

Going from Ac-[dR][Pen]NT[Trp(7-Me)]K(Ac)[Pen][AEF][6Br2Nal][Thp]EN[Thp]-NH2 (disulfide 2-7 (inferred)) [SEQ ID NO: 444] to Ac-[dR][Pen]NT[Trp(7-Me)]K(Ac)[Pen][TMAPF][2Nal(6-OH)][Thp]EN[3Pal][Sar]-NH2 (disulfide 2-7 (inferred)) [SEQ ID NO: 59], the “IL23R Reporter Assay IC50” value falls from ≥ 0.1 µM to < 0.01 µM.
